Experimental data as given in patent EP4293040A1.

Target: human trimeric IL-2 receptor (IL-2Rα, IL2Rβ and reconstituted transgenic wild-type GCR) on GnR cells (human) (UniProt P01589)
Experiment: cell-based or functional assay

## IL-15 (from UniProt P40933 49-162) (ligand)
  EC50 of the mRuby2 response (STAT5-mRuby2 reporter): 0.56 nM
